# According to patent US10272135B2, “Apolipoprotein O and fragments thereof for inducing apoptosis in a cancerous cell” (INSERM (INSTITUT NATIONAL DE LA SANTÉ ET DE LA RECHERCHE …, priority 2014, dated 2019):
# B1: ApoO: 198-amino acid apolipoprotein, SEQ ID NO: 1; tested by overexpression from expression vectors or transgene (protein, listed as Homo sapiens)
# chain: MFKVIQRSVGPASLSLLTFKVYAAPKKDSPPKNSVKVDELSLYSVPEGQSKYVEEARSQLEESISQLRHYCEPYTTWCQETYSQTKPKMQSLVQWGLDSYDYLQNAPPGFFPRLGVIGFAGLIGLLLARGSKIKKLVYPPGFMGLAASLYYPQQAIVFAQVSGERLYDWGLRGYIVIEDLWKENFQKPGNVKNSPGTK
# Assays:
# Assay type in all cases: cell-based
# glioblastoma cells = assay: Transmission electron microscopy of glioblastoma cells
# Protocol: Transmission electron microscopy of control (left) and ApoO expressing (right) cells incubated overnight with 100 μM of palmitate (n=6). Black arrows indicate lipid droplets.
# Transmission electron microscopy of control (left) and ApoO expressing (right) cells. Black arrows indicate blebs (n=3).
# H9c2 cardiac myoblasts = assay: Lipid profiling (FAME, diglycerides, triglycerides, BODIPY-palmitate) in cardiac myoblasts
# Description: After ethical committee approval, all patients in this study gave written consent for sample collection and molecular analysis prior to inclusion. Patients were carefully selected by physicians from the Department of Cardiology, Toulouse University Hospital, prior to coronary by-pass surgery. Bioinformatics. Microarray expression data from human heart samples were downloaded from the GEO repository (GSE1145). This series consisted of 107 myocardial samples collected from patients undergoing cardiac transplantation whose failure arises from different etiologies (e.g. idiopathic dilated cardiomyopathy, ischemic cardiomyopathy, valvular cardiomyopathy, and hypertrophic cardiomyopathy) and from “normal” organ donors whose hearts cannot be used for transplants. Arrays were intensity normalized and hierarchical clustering (average group linkage, Pearson correlation, threshold r=0.8) was applied to identify groups of co-expressed genes. ApoO expression levels were plotted for the 107 human hearts tested and used to define relevant molecular pathways using both Toppgene and Ingenuity Pathway Analysis (Ingenuity systems, Redwood City, Calif., USA). ApoO subcellular localization was predicted using Mitopred, mitoprot and YLoc. Animals: All animal Studies followed the INSERM Institute Animal Facility guidelines and were approved by the animal care committees of the INSERM I2MC UMR 1048. All animal procedures were performed according to the guidelines of the French Ministry of Agriculture. Animals were housed at the Toulouse I2MC animal facility in a room lit 12 h per day (6 AM-6 PM) at an ambient temperature of 22+/−1° C. […] All ApoO sequences within the expression vectors were verified by DNA double strand sequencing using ABI PRISM®BigDye™ Terminator version 3.1 Ready reaction cycle sequencing kit (Life Technologies SAS, Villebon sur Yvette) and loaded on an ABI 3130XL DNA sequencing instrument (Life Technologies SAS, Villebon sur Yvette). […]
# [1] = tested on: fatty acid transporter (CD36 and FATP4); assay: Real-time PCR of fatty acid transporter expression in cardiac myoblasts; conditions: ApoO cells vs control (FIG. 6A-B)
# Description: After ethical committee approval, all patients in this study gave written consent for sample collection and molecular analysis prior to inclusion. Patients were carefully selected by physicians from the Department of Cardiology, Toulouse University Hospital, prior to coronary by-pass surgery. Bioinformatics. Microarray expression data from human heart samples were downloaded from the GEO repository (GSE1145). This series consisted of 107 myocardial samples collected from patients undergoing cardiac transplantation whose failure arises from different etiologies (e.g. idiopathic dilated cardiomyopathy, ischemic cardiomyopathy, valvular cardiomyopathy, and hypertrophic cardiomyopathy) and from “normal” organ donors whose hearts cannot be used for transplants. Arrays were intensity normalized and hierarchical clustering (average group linkage, Pearson correlation, threshold r=0.8) was applied to identify groups of co-expressed genes. […] All ApoO sequences within the expression vectors were verified by DNA double strand sequencing using ABI PRISM®BigDye™ Terminator version 3.1 Ready reaction cycle sequencing kit (Life Technologies SAS, Villebon sur Yvette) and loaded on an ABI 3130XL DNA sequencing instrument (Life Technologies SAS, Villebon sur Yvette). […]
molecule,measurement,setting,value
B1,apoptosis (membrane blebbing),glioblastoma cells; cells which express ApoO vs cells which do not (FIG. 16),apoptosis occurs
same,mitochondrial morphology,glioblastoma cells; expression or overexpression of ApoO in glioblastoma cells,development of abnormal mitochondria
same,lipid accumulation,"glioblastoma cells; glioblastoma cells expressing ApoO, in the presence of palmitate (FIG. 15)",lipid accumulate
same,increase of total intracellular fatty acids,H9c2 cardiac myoblasts; ApoO expressing cells vs control (FIG. 6E),120%
same,accumulation of green fluorescent BODIPY-palmitate,"H9c2 cardiac myoblasts; ApoO expressing cells, 2 min incubation (FIG. 6D)",rapid accumulation
same,fatty acid transporter (CD36 and FATP4) expression,[1],strongly increased
